# Residue numbers refer to the chain shown, from its start. In names and notes the source's numbering stands.
# T1: human FcγRIIb extracellular domain with C-terminal His tag (human, UniProt P31994 43-217)
# T1 construct: extracellular domain; not shown: His tag at the C terminus
# T1 sequence (looked up): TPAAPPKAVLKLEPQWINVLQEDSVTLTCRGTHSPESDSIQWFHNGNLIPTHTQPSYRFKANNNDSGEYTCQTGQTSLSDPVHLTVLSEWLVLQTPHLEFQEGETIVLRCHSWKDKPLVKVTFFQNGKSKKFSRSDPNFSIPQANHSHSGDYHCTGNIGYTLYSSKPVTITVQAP
# T2: human FcγRIIa type R extracellular domain with C-terminal His tag (human, UniProt P12318 34-217)
# T2 construct: extracellular domain; also called FcγRIIaR; FcγRIIa R
# T2 sequence (looked up): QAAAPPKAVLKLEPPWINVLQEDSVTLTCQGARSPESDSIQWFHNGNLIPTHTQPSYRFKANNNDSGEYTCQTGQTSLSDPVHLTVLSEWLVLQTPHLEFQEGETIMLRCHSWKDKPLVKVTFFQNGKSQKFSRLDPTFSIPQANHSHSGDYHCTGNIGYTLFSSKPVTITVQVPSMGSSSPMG
# T3: human FcγRIIa type R (allotype R131) extracellular domain with C-terminal His tag (human, UniProt P12318 34-217)
# T3 construct: extracellular domain; also called FcγRIIaR; FcγRIIa R type; not shown: His tag at the C terminus
# T3 sequence (looked up): T2 sequence (looked up)
# B1: Fv4-F1166 (antibody, IgG1)
# heavy: QVQLQESGPGLVKPSETLSLTCAVSGHSISHDHAWSWVRQPPGEGLEWIGFISYSGITNYNPSLQGRVTISRDNSKNTLYLQMNSLRAEDTAVYYCARSLARTTAMDYWGEGTLVTVSSASTKGPSVFPLAPSSKSTSGGTAALGCLVKDYFPEPVTVSWNSGALTSGVHTFPAVLQSSGLYSLSSVVTVPSSSLGTQTYICNVNHKPSNTKVDKKVEPKSCDKTHTCPPCPAPELLGGPSVFLFPPKPKDTLYITREPEVTCVVVDVSHEDPEVKFNWYVDGVEVHNAKTKPREEQYNSTYRVVSVLTVLHQDWLNGKEYKCKVSNKALPAPIEKTISKAKGQPREPQVYTLPPSRDELTKNQVSLTCLVKGFYPSDIAVEWESNGQPENNYKTTPPVLDSDGSFFLYSKLTVDKSRWQQGNVFSCSVMHEALHNHYTRKELSLSP
# light: DIQMTQSPSSLSASVGDSVTITCQASTDISSHLNWYQQKPGKAPELLIYYGSHLLSGVPSRFSGSGSGTDFTFTISSLEAEDAATYYCGQGNRLPYTFGQGTKVEIERTVAAPSVFIFPPSDEQLKSGTASVVCLLNNFYPREAKVQWKVDNALQSGNSQESVTEQDSKDSTYSLSSTLTLSKADYEKHKVYACEVTHQGLSSPVTKSFNRGEC
# notes: copies: 2 + 2
# B2: Fv4-F1167 (antibody, human IgG1, kappa)
# heavy: B1 heavy with S426N, R440Q, E442S
# light: B1 light
# notes: copies: 2 + 2
# B3: Fv4-N434H (antibody, human IgG1, kappa)
# heavy: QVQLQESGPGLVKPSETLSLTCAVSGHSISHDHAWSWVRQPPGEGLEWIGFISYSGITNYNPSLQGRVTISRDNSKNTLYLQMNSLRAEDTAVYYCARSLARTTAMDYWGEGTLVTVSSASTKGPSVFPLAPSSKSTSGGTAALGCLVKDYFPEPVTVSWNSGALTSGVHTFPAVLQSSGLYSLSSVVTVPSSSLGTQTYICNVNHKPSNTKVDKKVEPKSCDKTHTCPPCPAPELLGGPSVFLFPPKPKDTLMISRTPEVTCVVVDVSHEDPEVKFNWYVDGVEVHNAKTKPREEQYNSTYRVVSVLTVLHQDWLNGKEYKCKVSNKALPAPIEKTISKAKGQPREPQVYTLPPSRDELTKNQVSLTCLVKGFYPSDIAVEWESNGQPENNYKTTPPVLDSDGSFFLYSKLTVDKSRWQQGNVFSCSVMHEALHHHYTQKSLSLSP
# light: B1 light
# notes: copies: 2 + 2
# B4: Fv4-F1173 (antibody, human IgG1, kappa)
# heavy: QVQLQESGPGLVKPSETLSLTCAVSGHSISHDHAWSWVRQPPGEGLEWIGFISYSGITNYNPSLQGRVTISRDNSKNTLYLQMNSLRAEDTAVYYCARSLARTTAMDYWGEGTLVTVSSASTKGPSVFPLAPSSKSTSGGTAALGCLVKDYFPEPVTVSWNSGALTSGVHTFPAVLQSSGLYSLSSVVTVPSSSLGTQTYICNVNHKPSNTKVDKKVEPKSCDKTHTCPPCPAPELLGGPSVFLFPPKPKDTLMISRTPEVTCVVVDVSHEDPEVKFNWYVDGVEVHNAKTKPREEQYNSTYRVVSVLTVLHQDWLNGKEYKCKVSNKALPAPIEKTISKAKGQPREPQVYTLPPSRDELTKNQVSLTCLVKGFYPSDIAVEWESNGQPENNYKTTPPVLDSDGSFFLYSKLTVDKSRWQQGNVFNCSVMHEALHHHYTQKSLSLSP
# light: B1 light
# notes: copies: 2 + 2
# B5: Fv4-YTE (antibody, human IgG1, kappa)
# heavy: B1 heavy with R440Q, E442S
# light: B1 light
# notes: copies: 2 + 2
# B6: Fv4-F1172 (antibody, IgG1)
# heavy: B1 heavy with Y254M, T256S, E258T, N436H
# light: B1 light
# notes: copies: 2 + 2
# B7: Fv4-F1171 (antibody, human IgG1, kappa)
# heavy: B1 heavy with Y254M, T256S, E258T, S426N, M430L, N436S, R440Q, E442S
# light: B1 light
# notes: copies: 2 + 2
# B8: Fv4-LS (antibody, human IgG1, kappa)
# heavy: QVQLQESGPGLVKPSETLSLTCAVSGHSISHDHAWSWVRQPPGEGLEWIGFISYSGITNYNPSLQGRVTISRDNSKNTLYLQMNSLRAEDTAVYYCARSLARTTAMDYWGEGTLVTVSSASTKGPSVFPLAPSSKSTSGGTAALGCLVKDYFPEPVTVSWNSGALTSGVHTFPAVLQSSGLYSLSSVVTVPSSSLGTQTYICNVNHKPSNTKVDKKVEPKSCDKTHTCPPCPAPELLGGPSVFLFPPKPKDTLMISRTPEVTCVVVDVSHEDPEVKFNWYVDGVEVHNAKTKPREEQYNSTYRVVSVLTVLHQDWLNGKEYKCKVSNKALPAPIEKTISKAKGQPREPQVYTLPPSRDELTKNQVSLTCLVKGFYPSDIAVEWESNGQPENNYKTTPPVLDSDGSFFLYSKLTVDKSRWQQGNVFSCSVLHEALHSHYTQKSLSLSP
# light: B1 light
# notes: also called F22 (LS); F22; copies: 2 + 2
# B9: IL6R-BP542/IL6R-L (antibody, human IgG1, kappa)
# heavy: QVQLQESGPGLVKPSETLSLTCAVSGHSISHDHAWSWVRQPPGEGLEWIGFISYSGITNYNPSLQGRVTISRDNSKNTLYLQMNSLRAEDTAVYYCARSLARTTAMDYWGEGTLVTVSSASTKGPSVFPLAPSSKSTSGGTAALGCLVKDYFPEPVTVSWNSGALTSGVHTFPAVLQSSGLYSLSSVVTVPSSSLGTQTYICNVNHKPSNTKVDKKVEPKSCDKTHTCPPCPAPDLLGDDSVFLFPPKPKDTLMISRTPEVTCVVVDVSDEDGEVKFNWYVDGVEVHNAKTKPREEQFNSTYRVVSVLTVLHQDWLNGKEYKCKVSNKALPRPIEKTISKAKGQPREPQVYTLPPSRDELTKNQVSLTCLVKGFYPSDIAVEWESNGQPENNYKTTPPVLDSDGSFFLYSKLTVDKSRWQQGNVFSCSVMHEALHNHYTQESLSLSP
# light: not shown
# notes: Y296F introduced into IL6R-BP230 (takes the place of Y296D); copies: 2 + 2
# B10: IL6R-PD043/IL6R-L (antibody, human IgG1, kappa)
# heavy: B1 heavy with L236Y, P240D, T256S, E258T, N436Y, R440Q, E442S
# light: not shown
# notes: also called P238D/L234Y; L234Y/P238D; copies: 2 + 2
# B11: IL6R-PD081/IL6R-L (antibody, human IgG1, kappa)
# heavy: B1 heavy with G239E, P240D, T256S, E258T, N436Y, R440Q, E442S
# light: not shown
# notes: also called P238D/G237E; G237E/P238D; copies: 2 + 2
# B12: IL6R-PD094/IL6R-L (antibody, human IgG1, kappa)
# heavy: B1 heavy with G239W, P240D, T256S, E258T, N436Y, R440Q, E442S
# light: not shown
# notes: also called P238D/G237W; G237W/P238D; copies: 2 + 2
# B13: IL6R-PD097/IL6R-L (antibody, human IgG1, kappa)
# heavy: B1 heavy with P240D, S241D, T256S, E258T, N436Y, R440Q, E442S
# light: not shown
# notes: also called P238D/S239D; copies: 2 + 2
# B14: IL6R-PD086/IL6R-L (antibody, human IgG1, kappa)
# heavy: B1 heavy with G239L, P240D, T256S, E258T, N436Y, R440Q, E442S
# light: not shown
# notes: also called P238D/G237L; G237L/P238D; copies: 2 + 2
# B15: IL6R-PD095/IL6R-L (antibody, human IgG1, kappa)
# heavy: B1 heavy with G239Y, P240D, T256S, E258T, N436Y, R440Q, E442S
# light: not shown
# notes: also called P238D/G237Y; G237Y/P238D; copies: 2 + 2
# B16: IL6R-PD082/IL6R-L (antibody, human IgG1, kappa)
# heavy: B1 heavy with G239F, P240D, T256S, E258T, N436Y, R440Q, E442S
# light: not shown
# notes: also called P238D/G237F; G237F/P238D; copies: 2 + 2
# B17: Fv4-F1386 (antibody, human IgG1, kappa)
# heavy: B1 heavy with Y254M, T256S, E258T, S428Y, M430L, N436S, R440Q, E442S
# light: B1 light
# notes: Variant of Fv4-LS; copies: 2 + 2
# B18: Fv4-F1383 (antibody, human IgG1, kappa)
# heavy: B1 heavy with Y254M, T256S, E258T, S428R, M430L, N436S, R440Q, E442S
# light: B1 light
# notes: as for B17
# B19: Fv4-F1381 (antibody, human IgG1, kappa)
# heavy: B1 heavy with Y254M, T256S, E258T, S428E, M430L, N436S, R440Q, E442S
# light: B1 light
# notes: as for B17
# B20: Fv4-F1382 (antibody, human IgG1, kappa)
# heavy: B1 heavy with Y254M, T256S, E258T, S428K, M430L, N436S, R440Q, E442S
# light: B1 light
# notes: as for B17
# B21: Fv4-F1380 (antibody, human IgG1, kappa)
# heavy: B1 heavy with Y254M, T256S, E258T, S428D, M430L, N436S, R440Q, E442S
# light: B1 light
# notes: as for B17
# B22: Fv4-F1385 (antibody, human IgG1, kappa)
# heavy: B1 heavy with Y254M, T256S, E258T, S428Q, M430L, N436S, R440Q, E442S
# light: B1 light
# notes: as for B17
# B23: Fv4-F1391 (antibody, human IgG1, kappa)
# heavy: B1 heavy with Y254M, T256S, E258T, M430L, N436S, Y438N, R440Q, E442S
# light: B1 light
# notes: as for B17
# B24: Fv4-F1388 (antibody, human IgG1, kappa)
# heavy: B1 heavy with Y254M, T256S, E258T, M430L, N436S, Y438F, R440Q, E442S
# light: B1 light
# notes: as for B17
# B25: Fv4-F1392 (antibody, human IgG1, kappa)
# heavy: B1 heavy with Y254M, T256S, E258T, M430L, N436S, Y438K, R440Q, E442S
# light: B1 light
# notes: as for B17
# B26: Fv4-F1384 (antibody, human IgG1, kappa)
# heavy: B1 heavy with Y254M, T256S, E258T, S428A, M430L, N436S, R440Q, E442S
# light: B1 light
# notes: as for B17
# B27: Fv4-F1389 (antibody, human IgG1, kappa)
# heavy: B1 heavy with Y254M, T256S, E258T, M430L, N436S, Y438T, R440Q, E442S
# light: B1 light
# notes: as for B17
# B28: Fv4-F1390 (antibody, human IgG1, kappa)
# heavy: B1 heavy with Y254M, T256S, E258T, M430L, N436S, Y438H, R440Q, E442S
# light: B1 light
# notes: as for B17
# B29: IL6R-BP187/IL6R-L (antibody, human IgG1, kappa)
# heavy: B9 heavy with D235E, L236Y, D239G, D270H, F298Y, K328A, R332K
# light: not shown
# notes: copies: 2 + 2
# B30: IL6R-BP203/IL6R-L (antibody, human IgG1, kappa)
# heavy: B9 heavy with D235E, D270H, F298Y
# light: not shown
# notes: copies: 2 + 2
# B31: IL6R-BP191/IL6R-L (antibody, human IgG1, kappa)
# heavy: B9 heavy with D239G, F298Y, K328A, R332K
# light: not shown
# notes: copies: 2 + 2
# B32: IL6R-BP192/IL6R-L (antibody, human IgG1, kappa)
# heavy: B9 heavy with D239G, F298D, R332K
# light: not shown
# notes: copies: 2 + 2
# B33: IL6R-BP189/IL6R-L (antibody, human IgG1, kappa)
# heavy: B9 heavy with D235E, F298Y, K328A, R332K
# light: not shown
# notes: copies: 2 + 2
# Target: T4, human FcRn (human, UniProt P55899 24-297; P61769 21-119)
# T4 construct: the construct is not described
# Assay: FcRn binding affinity at pH 6.0; method not stated
row,Kd,Binder
1,210 nM,B1
2,250 nM,B2
3,430 nM,B3
4,530 nM,B4
5,210 nM,B5
6,400 nM,B6
7,240 nM,B7
8,160 nM,B8

# Target: T1, human FcγRIIb extracellular domain with …
# Assay: SPR (Biacore), antibody captured, FcγR analyte
row,Kd,Binder
1,20 nM,B9

# Target: T5, human FcγRIIIa type V extracellular domain with C-terminal His tag (human, UniProt P08637 17-208)
# T5 construct: extracellular domain; also called FcγRIIIaV; FcγRIIIa V type
# Assay: SPR, Ref. Ex. 25
# T5 sequence (P08637 17-208 F176V): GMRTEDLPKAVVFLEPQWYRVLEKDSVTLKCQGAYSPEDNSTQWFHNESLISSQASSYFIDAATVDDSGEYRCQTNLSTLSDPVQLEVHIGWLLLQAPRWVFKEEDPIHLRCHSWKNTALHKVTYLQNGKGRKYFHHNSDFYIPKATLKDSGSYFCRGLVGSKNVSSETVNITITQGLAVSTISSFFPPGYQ
row,Kd,Binder
1,45000 nM,B10
2,41000 nM,B11
3,38000 nM,B12
4,17000 nM,B13
5,41000 nM,B14
6,42000 nM,B15
7,43000 nM,B16

# Target: T2, human FcγRIIa type R extracellular …
# Assay: SPR, Ref. Ex. 25
row,Kd,Binder
1,26000 nM,B10
2,38000 nM,B11
3,7200 nM,B12
4,7900 nM,B15
5,14000 nM,B16

# Target: T4, human FcRn
# Assay: binding to FcRn at pH 6.0; method not stated
row,Kd,Binder
1,160 nM,B17
2,160 nM,B18
3,86 nM,B19
4,130 nM,B20
5,73 nM,B21
6,77 nM,B22
7,420 nM,B23
8,80 nM,B24
9,270 nM,B25
10,86 nM,B26
11,71 nM,B8
12,68 nM,B27
13,400 nM,B28

# Target: T3, human FcγRIIa type R (allotype R131) …
# Assay: SPR (Biacore), antibody captured, FcγR analyte
row,Kd,Binder
1,2800 nM,B29
2,990 nM,B30
3,3000 nM,B31
4,2600 nM,B32

# Target: T6, human FcγRIIIa type V (allotype V158) extracellular domain with C-terminal His tag (human, UniProt P08637 17-208)
# T6 construct: extracellular domain; also called FcγRIIIaV; FcγRIIIa V type; not shown: His tag at the C terminus
# Assay: SPR (Biacore), antibody captured, FcγR analyte
# T6 sequence (P08637 17-208 F176V): as above
row,Kd,Binder
1,56000 nM,B29
2,72000 nM,B30

# Target: T7, human FcγRIa extracellular domain with C-terminal His tag (human, UniProt P12314 16-292)
# T7 construct: not shown: His tag at the C terminus
# Assay: SPR (Biacore), antibody captured, FcγR analyte
# T7 sequence (P12314 16-292): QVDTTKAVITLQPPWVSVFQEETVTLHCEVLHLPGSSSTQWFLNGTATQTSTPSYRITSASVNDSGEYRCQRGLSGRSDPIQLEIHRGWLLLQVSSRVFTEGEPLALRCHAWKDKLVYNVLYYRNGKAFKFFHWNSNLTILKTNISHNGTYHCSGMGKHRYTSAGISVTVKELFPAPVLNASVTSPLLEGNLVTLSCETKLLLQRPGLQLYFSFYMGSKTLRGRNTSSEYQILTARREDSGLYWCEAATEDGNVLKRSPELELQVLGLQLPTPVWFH
row,Kd,Binder
1,25 nM,B29
2,180 nM,B30
3,4 nM,B31
4,6.6 nM,B32
5,42 nM,B33

# — patent publication US20220389118A1 (Chugai, published 2022)
